This assay concerns the target valosin-containing protein (VCP)/p97 (UniProt P55072).

Sequence of valosin-containing protein (VCP)/p97 (P55072 whole entry): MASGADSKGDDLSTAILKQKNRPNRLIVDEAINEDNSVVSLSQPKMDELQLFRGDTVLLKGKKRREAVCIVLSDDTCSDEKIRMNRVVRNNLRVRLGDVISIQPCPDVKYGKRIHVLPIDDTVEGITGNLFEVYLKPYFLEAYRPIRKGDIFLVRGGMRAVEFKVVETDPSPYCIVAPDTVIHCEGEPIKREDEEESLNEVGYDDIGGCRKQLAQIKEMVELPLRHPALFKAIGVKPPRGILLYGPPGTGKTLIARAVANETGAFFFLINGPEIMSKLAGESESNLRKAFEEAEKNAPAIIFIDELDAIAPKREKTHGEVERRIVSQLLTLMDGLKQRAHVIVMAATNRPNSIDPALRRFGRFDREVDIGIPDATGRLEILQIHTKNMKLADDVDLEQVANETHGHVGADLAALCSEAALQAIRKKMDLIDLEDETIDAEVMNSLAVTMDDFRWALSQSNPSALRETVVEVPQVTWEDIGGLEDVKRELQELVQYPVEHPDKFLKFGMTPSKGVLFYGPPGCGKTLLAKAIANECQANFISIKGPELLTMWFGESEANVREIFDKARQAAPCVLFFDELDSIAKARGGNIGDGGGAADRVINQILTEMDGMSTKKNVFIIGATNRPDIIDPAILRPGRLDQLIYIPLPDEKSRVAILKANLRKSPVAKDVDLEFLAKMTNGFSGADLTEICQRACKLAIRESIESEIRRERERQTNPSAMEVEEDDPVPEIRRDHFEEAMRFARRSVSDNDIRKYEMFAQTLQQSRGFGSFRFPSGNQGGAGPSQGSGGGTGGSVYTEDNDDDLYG

B1: VCPIP1^(ΔVCPID ΔUBX) (aa Δ589-666, Δ773-852) (enzyme)
chain: MSQPPPPPPPLPPPPPPPEAPQTPSSLASAAASGGLLKRRDRRILSGSCPDPKCQARLFFPASGSVSIECTECGQRHEQQQLLGVEEVTDPDVVLHNLLRNALLGVTGAPKKNTELVKVMGLSNYHCKLLSPILARYGMDKQTGRAKLLRDMNQGELFDCALLGDRAFLIEPEHVNTVGYGKDRSGSLLYLHDTLEDIKRANKSQECLIPVHVDGDGHCLVHAVSRALVGRELFWHALRENLKQHFQQHLARYQALFHDFIDAAEWEDIINECDPLFVPPEGVPLGLRNIHIFGLANVLHRPIILLDSLSGMRSSGDYSATFLPGLIPAEKCTGKDGHLNKPICIAWSSSGRNHYIPLVGIKGAALPKLPMNLLPKAWGVPQDLIKKYIKLEEDGGCVIGGDRSLQDKYLLRLVAAMEEVFMDKHGIHPSLVADVHQYFYRRTGVIGVQPEEVTAAAKKAVMDNRLHKCLLCGALSELHVPPEWLAPGGKLYNLAKSTHGQLRTDKNYSFPLNNLVCSYDSVKDVLVPDYGMSNLTACNWCHGTSVRKVRGDGSIVYLDGDRTNSRSTGGKCGCGFKHFWDGKEYDNLNIDGAHAQRVGDVQGQESESQLPTKIILTGQKTKTLHKEELNMSKTERTIQQNITEQASVMQKRKTEKLKQEQKGQPRTVSPSTIRDGPSSAPATPTKAPYSPTTSSKAEGGQSAAAHSAHTVKQEDIAVTGKLSSKELQEQAEKEMYSLCLLATLMGEDVWSYAKGLPHMFQQGGVFYSIMKKTMGMADGKHCTFPHLPGKTFVYNASEDRLELCVDAAGHFPIGPDVEDLVKEAVSQVRAEATTRSRESSPSHGLLKLGSGGVVKKKSEQLHNVTAFQGKGHSLGTASGNPHLDPRARETSVVRKHNTGTDFSNSSTKTEPSVFTASSSNSELIRIAPGVVTMRDGRQLDPDLVEAQRKKLQEMVSSIQASMDRHLRDQSTEQSPSDLPQRKTEVVSSSAKSGSLQTGLPESFPLTGGTENLNTETTDGCVADALGAAFATRSKAQRGNSVEELEEMDSQDAEMTNTTEPMDHS
modifications: BODIPY, non-site-selective labelling, DOL 0.44, in the TR-FRET binding assay
With B1, the initial velocity of Ub-Rho hydrolysis by VCPIP1^(ΔVCPID ΔUBX) (62.5 nM enzyme) in the presence of VCP (v0 = 656.0 RFU/min without VCP); no effect of VCP was determined as 562 RFU/min.

B2: VCPIP1^ΔUBX (aa Δ773-852) (enzyme)
chain: MSQPPPPPPPLPPPPPPPEAPQTPSSLASAAASGGLLKRRDRRILSGSCPDPKCQARLFFPASGSVSIECTECGQRHEQQQLLGVEEVTDPDVVLHNLLRNALLGVTGAPKKNTELVKVMGLSNYHCKLLSPILARYGMDKQTGRAKLLRDMNQGELFDCALLGDRAFLIEPEHVNTVGYGKDRSGSLLYLHDTLEDIKRANKSQECLIPVHVDGDGHCLVHAVSRALVGRELFWHALRENLKQHFQQHLARYQALFHDFIDAAEWEDIINECDPLFVPPEGVPLGLRNIHIFGLANVLHRPIILLDSLSGMRSSGDYSATFLPGLIPAEKCTGKDGHLNKPICIAWSSSGRNHYIPLVGIKGAALPKLPMNLLPKAWGVPQDLIKKYIKLEEDGGCVIGGDRSLQDKYLLRLVAAMEEVFMDKHGIHPSLVADVHQYFYRRTGVIGVQPEEVTAAAKKAVMDNRLHKCLLCGALSELHVPPEWLAPGGKLYNLAKSTHGQLRTDKNYSFPLNNLVCSYDSVKDVLVPDYGMSNLTACNWCHGTSVRKVRGDGSIVYLDGDRTNSRSTGGKCGCGFKHFWDGKEYDNLPEAFPITLEWGGRVVRETVYWFQYESDSSLNSNVYDVAMKLVTKHFPGEFGSEILVQKVVHTILHQTAKKNPDDYTPVNIDGAHAQRVGDVQGQESESQLPTKIILTGQKTKTLHKEELNMSKTERTIQQNITEQASVMQKRKTEKLKQEQKGQPRTVSPSTIRDGPSSAPATPTKAPYSPTTSSKAEGGQSAAAHSAHTVKQEDIAVTGKLSSKELQEQAEKEMYSLCLLATLMGEDVWSYAKGLPHMFQQGGVFYSIMKKTMGMADGKHCTFPHLPGKTFVYNASEDRLELCVDAAGHFPIGPDVEDLVKEAVSQVRAEATTRSRESSPSHGLLKLGSGGVVKKKSEQLHNVTAFQGKGHSLGTASGNPHLDPRARETSVVRKHNTGTDFSNSSTKTEPSVFTASSSNSELIRIAPGVVTMRDGRQLDPDLVEAQRKKLQEMVSSIQASMDRHLRDQSTEQSPSDLPQRKTEVVSSSAKSGSLQTGLPESFPLTGGTENLNTETTDGCVADALGAAFATRSKAQRGNSVEELEEMDSQDAEMTNTTEPMDHS
modifications: BODIPY, non-site-selective labelling, DOL 0.54, in the TR-FRET binding assay
As for B2, the initial velocity of Ub-Rho hydrolysis by VCPIP1^ΔUBX (62.5 nM enzyme) in the presence of VCP (v0 = 754.0 RFU/min without VCP); no effect of VCP was 733 RFU/min.
